For the experiment, the target named is T1, Human B7H6 (ACRO biosystems, cat. No. B76-H52H8) (human, UniProt Q68D85 25-262).
T1 construct: Bought antigen; also called B7H6 antigen; human B7H6 protein
T1 sequence (looked up): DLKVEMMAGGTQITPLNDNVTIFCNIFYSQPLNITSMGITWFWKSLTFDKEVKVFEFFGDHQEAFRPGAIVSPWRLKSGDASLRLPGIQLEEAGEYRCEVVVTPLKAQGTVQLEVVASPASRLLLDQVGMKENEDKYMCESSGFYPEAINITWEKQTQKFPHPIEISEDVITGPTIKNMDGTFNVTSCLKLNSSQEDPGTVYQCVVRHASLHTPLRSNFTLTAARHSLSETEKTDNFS
Nature of the experiment: ELISA, B7H6 coated, HRP anti-human IgG detection. As to the method:
Human B7H6 (ACRO biosystems, cat. No. B76-H52H8) and human CD3 antigen (ACRO biosystems, cat. No. CDD-H52W1) were diluted to 2 μg/mL with coating buffer (35 mM NaHCO₃, 15 mM Na₂CO₃, pH 9.6), respectively. 100 μL of the diluted solution was added to each well of an ELISA plate at 4° C. overnight, and then washes with PBST (0.05% Tween 20-PBS, pH 7.2) 3 times. 300 μL of blocking buffer (1% BSA, 0.05% Tween20-PBS, pH 7.2) was added to the plate and allowed to stand at room temperature for 2 h, followed by washing with PBST three times. The corresponding bispecific antibody was added to each well and incubated at room temperature for 1 h, followed by washing with PBST three times. 100 μL of HRP-rabbit anti human IgG secondary antibody (Boster, cat. No. BA1070) diluted in blocking buffer was added to each well and incubated for 1 h at room temperature, followed by washing with PBST three times. TMB was added into each well. The plate was kept away from light at room temperature for 2-5 min, the reaction was stopped by adding 2 M sulfuric acid in each well, and finally OD450 values were read with microplate reader.
Background: ELISA stands for enzyme-linked immunosorbent assay.

B1: CD3xB7H6-10 bispecific antibody (bispecific antibody, human IgG1, L234A L235A)
chain 1: not shown
chain 2: DIVLTQTPLSLSVTPGQPASISCKASQSVDYDGDSYMNWYLQKPGQPPQLLIYAASTLHSGVPDRFSGSGSGTDFTLKISRVEAEDVGVYYCQQSKEDPRTFGQGTKLEIKGGGGSGGGGSGGGGSEVQLVQSGAEVKKPGASVKVSCKASGYTFTDYNMDWVRQAPGQGLEWIGDINPNNGGTLYNQKFRGRVTLTVDTSISTAYMELSRLRSDDTAVYYCARSEVFYGNYADYWGQGTTVTVSSEPKSCDKTHTCPPCPAPEAAGGPSVFLFPPKPKDTLMISRTPEVTCVVVDVSHEDPEVKFNWYVDGVEVHNAKTKPREEQYNSTYRVVSVLTVLHQDWLNGKEYKCKVSNKALPAPIEKTISKAKGQPREPQVCTLPPSRDELTKNQVSLSCAVKGFYPSDIAVEWESNGQPENNYKTTPPVLDSDGSFFLVSKLTVDKSRWQQGNVFSCSVMHEALHNHYTQKSLSLSPGK
notes: Heterodimer of two scFv-Fc units, knob-into-hole human IgG1 Fc; name formed by analogy with CD3xB7H6-14
Regarding B1, the binding result is on record as “binds”.

B2: CD3xB7H6-9 bispecific antibody (bispecific antibody, human IgG1, L234A L235A)
chain 1: not shown
chain 2: DIVLTQTPLSLSVTPGQPASISCKASQSVDYDGDSYMNWYLQKPGQPPQLLIYAASTLHSGVPDRFSGSGSGTDFTLKISRVEAEDVGVYYCQQSKEDPRTFGQGTKLEIKGGGGSGGGGSGGGGSEVQLVQSGAEVKKPGASVKVSCKASGYTFTDYNMDWVRQAPGQGLEWMGDINPNNGGTLYNQKFRGRVTMTVDTSISTAYMELSRLRSDDTAVYYCARSEVFYGNYADYWGQGTTVTVSSEPKSCDKTHTCPPCPAPEAAGGPSVFLFPPKPKDTLMISRTPEVTCVVVDVSHEDPEVKFNWYVDGVEVHNAKTKPREEQYNSTYRVVSVLTVLHQDWLNGKEYKCKVSNKALPAPIEKTISKAKGQPREPQVCTLPPSRDELTKNQVSLSCAVKGFYPSDIAVEWESNGQPENNYKTTPPVLDSDGSFFLVSKLTVDKSRWQQGNVFSCSVMHEALHNHYTQKSLSLSPGK
notes: as for B1
Turning to B2, the binding result was “binds”.

B3: CD3xB7H6-2 bispecific antibody (bispecific antibody, human IgG1, L234A L235A)
chain 1: not shown
chain 2: DIVLTQSPDSLAVSLGERATINCKASQSVDYDGDSYMNWYQQKPGQPPKLLIYAASTLHSGVPDRFSGSGSGTDFTLTISSLQAEDVAVYYCQQSKEDPRTFGQGTKLEIKGGGGSGGGGSGGGGSEVQLVQSGAEVKKPGASVKVSCKASGYTFTDYNMDWVRQAPGQGLEWIGDINPNNGGTLYNQKFRGRVTLTVDTSISTAYMELSRLRSDDTAVYYCARSEVFYGNYADYWGQGTTVTVSSEPKSCDKTHTCPPCPAPEAAGGPSVFLFPPKPKDTLMISRTPEVTCVVVDVSHEDPEVKFNWYVDGVEVHNAKTKPREEQYNSTYRVVSVLTVLHQDWLNGKEYKCKVSNKALPAPIEKTISKAKGQPREPQVCTLPPSRDELTKNQVSLSCAVKGFYPSDIAVEWESNGQPENNYKTTPPVLDSDGSFFLVSKLTVDKSRWQQGNVFSCSVMHEALHNHYTQKSLSLSPGK
notes: as for B1
As for B3, the binding result is listed as “binds”.

B4: CD3xB7H6-6 bispecific antibody (bispecific antibody, human IgG1, L234A L235A)
chain 1: not shown
chain 2: DIVLTQSPDSLAVSLGERATINCKASQSVDYDGDSYMNWYQQKPGQPPKLLIYAASTLHSGIPDRFSGSGSGTDFTLTISSLQAEDVAVYYCQQSKEDPRTFGQGTKLEIKGGGGSGGGGSGGGGSEVQLVQSGAEVKKPGASVKVSCKASGYTFTDYNMDWVRQAPGQGLEWIGDINPNNGGTLYNQKFRGRVTLTVDTSISTAYMELSRLRSDDTAVYYCARSEVFYGNYADYWGQGTTVTVSSEPKSCDKTHTCPPCPAPEAAGGPSVFLFPPKPKDTLMISRTPEVTCVVVDVSHEDPEVKFNWYVDGVEVHNAKTKPREEQYNSTYRVVSVLTVLHQDWLNGKEYKCKVSNKALPAPIEKTISKAKGQPREPQVCTLPPSRDELTKNQVSLSCAVKGFYPSDIAVEWESNGQPENNYKTTPPVLDSDGSFFLVSKLTVDKSRWQQGNVFSCSVMHEALHNHYTQKSLSLSPGK
notes: as for B1
As to B4, the binding result is listed as “binds”.

B5: CD3xB7H6-5 bispecific antibody (bispecific antibody, human IgG1, L234A L235A)
chain 1: not shown
chain 2: DIVLTQSPDSLAVSLGERATINCKASQSVDYDGDSYMNWYQQKPGQPPKLLIYAASTLHSGIPDRFSGSGSGTDFTLTISSLQAEDVAVYYCQQSKEDPRTFGQGTKLEIKGGGGSGGGGSGGGGSEVQLVQSGAEVKKPGASVKVSCKASGYTFTDYNMDWVRQAPGQGLEWMGDINPNNGGTLYNQKFRGRVTMTVDTSISTAYMELSRLRSDDTAVYYCARSEVFYGNYADYWGQGTTVTVSSEPKSCDKTHTCPPCPAPEAAGGPSVFLFPPKPKDTLMISRTPEVTCVVVDVSHEDPEVKFNWYVDGVEVHNAKTKPREEQYNSTYRVVSVLTVLHQDWLNGKEYKCKVSNKALPAPIEKTISKAKGQPREPQVCTLPPSRDELTKNQVSLSCAVKGFYPSDIAVEWESNGQPENNYKTTPPVLDSDGSFFLVSKLTVDKSRWQQGNVFSCSVMHEALHNHYTQKSLSLSPGK
notes: as for B1
In the case of B5, the binding result is listed as “binds”.

B6: CD3xB7H6-4 bispecific antibody (bispecific antibody, human IgG1, L234A L235A)
chain 1: not shown
chain 2: DIVLTQSPDSLAVSLGERATINCKASQSVDYDGDSYMNWYQQKPGQPPKLLIYAASTLHSGVPDRFSGSGSGTDFTLTISSLQAEDVAVYYCQQSKEDPRTFGQGTKLEIKGGGGSGGGGSGGGGSEVQLVQSGAEVKKPGASVKVSCKASGYTFTDYNMDWVRQAPGKGLEWIGDINPNNGGTLYNQKFRGRVTLTVDKSISTAYMELSRLRSDDTAVYYCARSEVFYGNYADYWGQGTTVTVSSEPKSCDKTHTCPPCPAPEAAGGPSVFLFPPKPKDTLMISRTPEVTCVVVDVSHEDPEVKFNWYVDGVEVHNAKTKPREEQYNSTYRVVSVLTVLHQDWLNGKEYKCKVSNKALPAPIEKTISKAKGQPREPQVCTLPPSRDELTKNQVSLSCAVKGFYPSDIAVEWESNGQPENNYKTTPPVLDSDGSFFLVSKLTVDKSRWQQGNVFSCSVMHEALHNHYTQKSLSLSPGK
notes: as for B1
With B6, the binding result is “binds”.

B7: CD3xB7H6-3 bispecific antibody (bispecific antibody, human IgG1, L234A L235A)
chain 1: not shown
chain 2: DIVLTQSPDSLAVSLGERATINCKASQSVDYDGDSYMNWYQQKPGQPPKLLIYAASTLHSGVPDRFSGSGSGTDFTLTISSLQAEDVAVYYCQQSKEDPRTFGQGTKLEIKGGGGSGGGGSGGGGSEVQLVQSGAEVKKPGASVKVSCKASGYTFTDYNMDWVRQAPGQGLEWIGDINPNNGGTLYNQKFRGRVTLTVDKSISTAYMELSRLRSDDTAVYYCARSEVFYGNYADYWGQGTTVTVSSEPKSCDKTHTCPPCPAPEAAGGPSVFLFPPKPKDTLMISRTPEVTCVVVDVSHEDPEVKFNWYVDGVEVHNAKTKPREEQYNSTYRVVSVLTVLHQDWLNGKEYKCKVSNKALPAPIEKTISKAKGQPREPQVCTLPPSRDELTKNQVSLSCAVKGFYPSDIAVEWESNGQPENNYKTTPPVLDSDGSFFLVSKLTVDKSRWQQGNVFSCSVMHEALHNHYTQKSLSLSPGK
notes: as for B1
Take B7: the binding result was “binds”.

B8: CD3xB7H6-1 bispecific antibody (bispecific antibody, human IgG1, L234A L235A)
chain 1: not shown
chain 2: DIVLTQSPDSLAVSLGERATINCKASQSVDYDGDSYMNWYQQKPGQPPKLLIYAASTLHSGVPDRFSGSGSGTDFTLTISSLQAEDVAVYYCQQSKEDPRTFGQGTKLEIKGGGGSGGGGSGGGGSEVQLVQSGAEVKKPGASVKVSCKASGYTFTDYNMDWVRQAPGQGLEWMGDINPNNGGTLYNQKFRGRVTMTVDTSISTAYMELSRLRSDDTAVYYCARSEVFYGNYADYWGQGTTVTVSSEPKSCDKTHTCPPCPAPEAAGGPSVFLFPPKPKDTLMISRTPEVTCVVVDVSHEDPEVKFNWYVDGVEVHNAKTKPREEQYNSTYRVVSVLTVLHQDWLNGKEYKCKVSNKALPAPIEKTISKAKGQPREPQVCTLPPSRDELTKNQVSLSCAVKGFYPSDIAVEWESNGQPENNYKTTPPVLDSDGSFFLVSKLTVDKSRWQQGNVFSCSVMHEALHNHYTQKSLSLSPGK
notes: Heterodimer of two scFv-Fc monovalent units, knob-into-hole human IgG1 Fc; name formed by analogy with the printed CD3xB7H6-14
Take B8: the binding result is reported as “binds”.

B9: CD3xB7H6-8 bispecific antibody (bispecific antibody, human IgG1, L234A L235A)
chain 1: not shown
chain 2: DIVLTQSPDSLAVSLGERATINCKASQSVDYDGDSYMNWYQQKPGQPPKLLIYAASTLHSGIPDRFSGSGSGTDFTLTISSLQAEDVAVYYCQQSKEDPRTFGQGTKLEIKGGGGSGGGGSGGGGSEVQLVQSGAEVKKPGASVKVSCKASGYTFTDYNMDWVRQAPGKGLEWIGDINPNNGGTLYNQKFRGRVTLTVDKSISTAYMELSRLRSDDTAVYYCARSEVFYGNYADYWGQGTTVTVSSEPKSCDKTHTCPPCPAPEAAGGPSVFLFPPKPKDTLMISRTPEVTCVVVDVSHEDPEVKFNWYVDGVEVHNAKTKPREEQYNSTYRVVSVLTVLHQDWLNGKEYKCKVSNKALPAPIEKTISKAKGQPREPQVCTLPPSRDELTKNQVSLSCAVKGFYPSDIAVEWESNGQPENNYKTTPPVLDSDGSFFLVSKLTVDKSRWQQGNVFSCSVMHEALHNHYTQKSLSLSPGK
notes: as for B1
Turning to B9, the binding result is listed as “binds”.

B10: CD3xB7H6-7 bispecific antibody (bispecific antibody, human IgG1, L234A L235A)
chain 1: not shown
chain 2: DIVLTQSPDSLAVSLGERATINCKASQSVDYDGDSYMNWYQQKPGQPPKLLIYAASTLHSGIPDRFSGSGSGTDFTLTISSLQAEDVAVYYCQQSKEDPRTFGQGTKLEIKGGGGSGGGGSGGGGSEVQLVQSGAEVKKPGASVKVSCKASGYTFTDYNMDWVRQAPGQGLEWIGDINPNNGGTLYNQKFRGRVTLTVDKSISTAYMELSRLRSDDTAVYYCARSEVFYGNYADYWGQGTTVTVSSEPKSCDKTHTCPPCPAPEAAGGPSVFLFPPKPKDTLMISRTPEVTCVVVDVSHEDPEVKFNWYVDGVEVHNAKTKPREEQYNSTYRVVSVLTVLHQDWLNGKEYKCKVSNKALPAPIEKTISKAKGQPREPQVCTLPPSRDELTKNQVSLSCAVKGFYPSDIAVEWESNGQPENNYKTTPPVLDSDGSFFLVSKLTVDKSRWQQGNVFSCSVMHEALHNHYTQKSLSLSPGK
notes: as for B1
On to B10, for which the binding result was “binds”.

These data come from patent US20240124615A1 (HEFEI TG IMMUNOPHARMA, published 2024).
